{"source": "patent US20260167710A1", "about": "(GlaxoSmithKline, published 2026)", "binders": {"B1": {"name": "22A06-458 (antibody, human IgG1, kappa)", "heavy": "QVQLVQSGAEVKKPGASVKVSCKASGYTFISYGMHWVRQAPGQGLEWMGEINPHGGSTSYAQKFKGRVTMTRDTSTSTVYMELSSLRSEDTAVYYCARPSAAYSHYLGIDLWGRGTLVTVSSASTKGPSVFPLAPSSKSTSGGTAALGCLVKDYFPEPVTVSWNSGALTSGVHTFPAVLQSSGLYSLSSVVTVPSSSLGTQTYICNVNHKPSNTKVDKKVEPKSCDKTHTCPPCPAPELLGGPSVFLFPPKPKDTLYITREPEVTCVVVDVSHEDPEVKFNWYVDGVEVHNAKTKPREEQYNSTYRVVSVLTVLHQDWLNGKEYKCKVSNKALPAPIEKTISKAKGQPREPQVYTLPPSRDELTKNQVSLTCLVKGFYPSDIAVEWESNGQPENNYKTTPPVLDSDGSFFLYSKLTVDKSRWQQGNVFSCSVMHEALHNHYTQKSLSLSPGK", "light": "DIQMTQSPSSVSASVGDRVTITCRASQGISSWLAWYQQKPGKAPKLLIYAASRLQSGVPSRFSGSGSGTDFTLTISSLQPEDFATYYCQQANVFPLTFGGGTKVEIKRTVAAPSVFIFPPSDEQLKSGTASVVCLLNNFYPREAKVQWKVDNALQSGNSQESVTEQDSKDSTYSLSSTLTLSKADYEKHKVYACEVTHQGLSSPVTKSFNRGEC"}}, "assay_in_all_cases": "cell-based or functional assay", "key": {"[1]": {"target": "T1, IL-33 109-270 (UniProt O95760 109-270)", "T1 sequence (looked up)": "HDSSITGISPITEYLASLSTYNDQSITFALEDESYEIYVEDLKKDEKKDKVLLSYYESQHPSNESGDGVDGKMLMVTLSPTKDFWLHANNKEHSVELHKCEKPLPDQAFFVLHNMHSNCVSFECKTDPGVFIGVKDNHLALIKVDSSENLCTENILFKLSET"}, "[2]": {"target": "T2, human IL-33 (human, Biotinylated in Example 2; the site is not stated.)", "T2 chain": "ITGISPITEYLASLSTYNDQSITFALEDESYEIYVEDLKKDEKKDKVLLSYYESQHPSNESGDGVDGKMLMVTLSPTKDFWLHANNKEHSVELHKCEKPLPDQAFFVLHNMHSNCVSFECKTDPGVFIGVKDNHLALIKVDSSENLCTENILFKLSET"}, "[3]": {"target": "T2, human IL-33"}, "[4]": {"target": "T2, human IL-33"}}, "data": [{"binder": "B1", "values": [{"measurement": "IC50, inhibition of 25 pM IL-33 isoform in HEK-Blue reporter assay", "setting": "[1]", "value": 254, "unit": "pM"}, {"measurement": "IC50, inhibition of IL-33 (500 pM) induced IL-6 secretion from HUVECs, pre-complexed, Mean", "setting": "[2]", "value": 217, "unit": "pM"}, {"measurement": "IC50, inhibition of IL-33 (500 pM) induced IL-6 secretion from HUVECs, pre-complexed, P7", "setting": "[2]", "value": 214, "unit": "pM"}, {"measurement": "IC50, inhibition of IL-33 (500 pM) induced IL-6 secretion from HUVECs, pre-complexed, P8", "setting": "[2]", "value": 204, "unit": "pM"}, {"measurement": "IC50, inhibition of IL-33 (500 pM) induced IL-6 secretion from HUVECs, pre-complexed, P9", "setting": "[2]", "value": 234, "unit": "pM"}, {"measurement": "IC50, inhibition of IL-33 (500 pM) induced IL-8 secretion from HUVECs, pre-complexed, Mean", "setting": "[2]", "value": 390, "unit": "pM"}, {"measurement": "IC50, inhibition of IL-33 (500 pM) induced IL-8 secretion from HUVECs, pre-complexed, P7", "setting": "[2]", "value": 489, "unit": "pM"}, {"measurement": "IC50, inhibition of IL-33 (500 pM) induced IL-8 secretion from HUVECs, pre-complexed, P8", "setting": "[2]", "value": 278, "unit": "pM"}, {"measurement": "IC50, inhibition of IL-33 (500 pM) induced IL-8 secretion from HUVECs, pre-complexed, P9", "setting": "[2]", "value": 402, "unit": "pM"}, {"measurement": "pIC50, inhibition of IL-33 (500 pM) induced IL-6 secretion from HUVECs, pre-complexed, Mean", "setting": "[2]", "value": 9.66}, {"measurement": "pIC50, inhibition of IL-33 (500 pM) induced IL-6 secretion from HUVECs, pre-complexed, P7", "setting": "[2]", "value": 9.67}, {"measurement": "pIC50, inhibition of IL-33 (500 pM) induced IL-6 secretion from HUVECs, pre-complexed, P8", "setting": "[2]", "value": 9.69}, {"measurement": "pIC50, inhibition of IL-33 (500 pM) induced IL-6 secretion from HUVECs, pre-complexed, P9", "setting": "[2]", "value": 9.63}, {"measurement": "pIC50, inhibition of IL-33 (500 pM) induced IL-8 secretion from HUVECs, pre-complexed, Mean", "setting": "[2]", "value": 9.42}, {"measurement": "pIC50, inhibition of IL-33 (500 pM) induced IL-8 secretion from HUVECs, pre-complexed, P7", "setting": "[2]", "value": 9.31}, {"measurement": "pIC50, inhibition of IL-33 (500 pM) induced IL-8 secretion from HUVECs, pre-complexed, P8", "setting": "[2]", "value": 9.56}, {"measurement": "pIC50, inhibition of IL-33 (500 pM) induced IL-8 secretion from HUVECs, pre-complexed, P9", "setting": "[2]", "value": 9.4}, {"measurement": "IC50, inhibition of 100 ng/mL IL-33/IL-12 induced IFN-γ secretion from whole blood, pre-complexed, Mean", "setting": "[3]", "value": 3.9, "unit": "nM"}, {"measurement": "IC50, inhibition of 100 ng/mL IL-33/IL-12 induced IFN-γ secretion from whole blood, pre-complexed, donor #91232", "setting": "[3]", "value": 2.79, "unit": "nM"}, {"measurement": "IC50, inhibition of 100 ng/mL IL-33/IL-12 induced IFN-γ secretion from whole blood, pre-complexed, donor #91845", "setting": "[3]", "value": 5.75, "unit": "nM"}, {"measurement": "IC50, inhibition of 100 ng/mL IL-33/IL-12 induced IFN-γ secretion from whole blood, pre-complexed, donor #91865", "setting": "[3]", "value": 0.88, "unit": "nM"}, {"measurement": "IC50, inhibition of 100 ng/mL IL-33/IL-12 induced IFN-γ secretion from whole blood, pre-complexed, donor #92023", "setting": "[3]", "value": 3.43, "unit": "nM"}, {"measurement": "IC50, inhibition of 100 ng/mL IL-33/IL-12 induced IFN-γ secretion from whole blood, pre-complexed, donor #92186", "setting": "[3]", "value": 3.01, "unit": "nM"}, {"measurement": "IC50, inhibition of 100 ng/mL IL-33/IL-12 induced IFN-γ secretion from whole blood, pre-complexed, donor #92187", "setting": "[3]", "value": 4.75, "unit": "nM"}, {"measurement": "IC50, inhibition of 100 ng/mL IL-33/IL-12 induced IFN-γ secretion from whole blood, pre-complexed, donor #92257", "setting": "[3]", "value": 2.66, "unit": "nM"}, {"measurement": "IC50, inhibition of 100 ng/mL IL-33/IL-12 induced IFN-γ secretion from whole blood, pre-complexed, donor #92258", "setting": "[3]", "value": 7.9, "unit": "nM"}, {"measurement": "pIC50, inhibition of 100 ng/mL IL-33/IL-12 induced IFN-γ secretion from whole blood, pre-complexed, Mean", "setting": "[3]", "value": 8.48}, {"measurement": "pIC50, inhibition of 100 ng/mL IL-33/IL-12 induced IFN-γ secretion from whole blood, pre-complexed, donor #91232", "setting": "[3]", "value": 8.55}, {"measurement": "pIC50, inhibition of 100 ng/mL IL-33/IL-12 induced IFN-γ secretion from whole blood, pre-complexed, donor #91845", "setting": "[3]", "value": 8.24}, {"measurement": "pIC50, inhibition of 100 ng/mL IL-33/IL-12 induced IFN-γ secretion from whole blood, pre-complexed, donor #91865", "setting": "[3]", "value": 9.05}, {"measurement": "pIC50, inhibition of 100 ng/mL IL-33/IL-12 induced IFN-γ secretion from whole blood, pre-complexed, donor #92023", "setting": "[3]", "value": 8.46}, {"measurement": "pIC50, inhibition of 100 ng/mL IL-33/IL-12 induced IFN-γ secretion from whole blood, pre-complexed, donor #92186", "setting": "[3]", "value": 8.52}, {"measurement": "pIC50, inhibition of 100 ng/mL IL-33/IL-12 induced IFN-γ secretion from whole blood, pre-complexed, donor #92187", "setting": "[3]", "value": 8.32}, {"measurement": "pIC50, inhibition of 100 ng/mL IL-33/IL-12 induced IFN-γ secretion from whole blood, pre-complexed, donor #92257", "setting": "[3]", "value": 8.58}, {"measurement": "pIC50, inhibition of 100 ng/mL IL-33/IL-12 induced IFN-γ secretion from whole blood, pre-complexed, donor #92258", "setting": "[3]", "value": 8.1}, {"measurement": "IC50, inhibition of 30 ng/mL IL-33/IL-12 induced IFN-γ secretion from whole blood, pre-complexed, Mean", "setting": "[4]", "value": 3.24, "unit": "nM"}, {"measurement": "IC50, inhibition of 30 ng/mL IL-33/IL-12 induced IFN-γ secretion from whole blood, pre-complexed, donor #91232", "setting": "[4]", "value": 1.47, "unit": "nM"}, {"measurement": "IC50, inhibition of 30 ng/mL IL-33/IL-12 induced IFN-γ secretion from whole blood, pre-complexed, donor #91845", "setting": "[4]", "value": 3.88, "unit": "nM"}, {"measurement": "IC50, inhibition of 30 ng/mL IL-33/IL-12 induced IFN-γ secretion from whole blood, pre-complexed, donor #92023", "setting": "[4]", "value": 2.48, "unit": "nM"}, {"measurement": "IC50, inhibition of 30 ng/mL IL-33/IL-12 induced IFN-γ secretion from whole blood, pre-complexed, donor #92187", "setting": "[4]", "value": 4.92, "unit": "nM"}, {"measurement": "IC50, inhibition of 30 ng/mL IL-33/IL-12 induced IFN-γ secretion from whole blood, pre-complexed, donor #92257", "setting": "[4]", "value": 1.75, "unit": "nM"}, {"measurement": "IC50, inhibition of 30 ng/mL IL-33/IL-12 induced IFN-γ secretion from whole blood, pre-complexed, donor #92258", "setting": "[4]", "value": 4.93, "unit": "nM"}, {"measurement": "pIC50, inhibition of 30 ng/mL IL-33/IL-12 induced IFN-γ secretion from whole blood, pre-complexed, Mean", "setting": "[4]", "value": 8.53}, {"measurement": "pIC50, inhibition of 30 ng/mL IL-33/IL-12 induced IFN-γ secretion from whole blood, pre-complexed, donor #91232", "setting": "[4]", "value": 8.83}, {"measurement": "pIC50, inhibition of 30 ng/mL IL-33/IL-12 induced IFN-γ secretion from whole blood, pre-complexed, donor #91845", "setting": "[4]", "value": 8.41}, {"measurement": "pIC50, inhibition of 30 ng/mL IL-33/IL-12 induced IFN-γ secretion from whole blood, pre-complexed, donor #92023", "setting": "[4]", "value": 8.6}, {"measurement": "pIC50, inhibition of 30 ng/mL IL-33/IL-12 induced IFN-γ secretion from whole blood, pre-complexed, donor #92187", "setting": "[4]", "value": 8.3}]}]}
